Results taken from US20240261333A1, “NOVEL TARGETS FOR ENHANCING ANTI-TUMOR IMMUNITY” (THE BROAD INSTITUTE, INC., priority 2021, published 2024).

T1: B3GNT2 (Homo sapiens, UniProt Q9NY97)
T1 construct: The respective ORFs of candidate genes [CD274 (NM_014143), MCL1 (NM_021960), JUNB (NM_002229), and B3GNT2 (NM_006577)] were synthesized; expressed in transfected cells; host or cells: A375 melanoma cells (lentiviral ORF overexpression)
T1 sequence (Q9NY97 1-397): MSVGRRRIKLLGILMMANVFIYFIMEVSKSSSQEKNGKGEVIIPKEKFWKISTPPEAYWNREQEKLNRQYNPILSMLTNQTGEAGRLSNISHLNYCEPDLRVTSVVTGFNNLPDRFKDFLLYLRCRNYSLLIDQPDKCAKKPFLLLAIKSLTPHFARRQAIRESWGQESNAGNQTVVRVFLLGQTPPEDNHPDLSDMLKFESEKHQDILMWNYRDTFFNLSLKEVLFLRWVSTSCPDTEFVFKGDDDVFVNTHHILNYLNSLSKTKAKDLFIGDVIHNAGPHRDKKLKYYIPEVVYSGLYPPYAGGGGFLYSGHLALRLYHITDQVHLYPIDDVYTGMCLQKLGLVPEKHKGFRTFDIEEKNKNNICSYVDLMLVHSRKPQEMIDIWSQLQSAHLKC


Target: T1, B3GNT2
Assay: Co-IP of FLAG-tagged B3GNT2 followed by mass spectrometry
Type: cell-based
Parameters: C-term IgG / C-term flag: unit not given here
Procedure: Cells were plated in 10-cm cell culture dishes and grown to 60-80% confluency. For each condition, two biological replicates were harvested for co-IP. Cells were washed with PBS and 4 mL of lysis buffer (20 mM HEPES, 1% Triton X-100, 150 mM NaCl, 1 mM EDTA, and 10% glycerol) containing protease inhibitor cocktail was added. Cells were scraped and lysate was incubated at 4° C. under rotary agitation for 1 h. Lysate was centrifuged at 14,000×g for 10 min at 4° C. Supernatant was transferred to a new tube and an aliquot was taken as the input. […] For Western blots, 10 μg/mL Chicken Anti-FLAG (Aves labs ET-DY100) and IgY control (R&D Systems AB-101-C) antibodies were biotinylated (Thermo Fisher Scientific 90407) and added to the respective conditions. Lysates with antibodies were incubated at 4° C. under rotary agitation overnight. For each mL of lysate, 50 μL of Pierce Protein A/G Magnetic Beads (Mass spectrometry; Thermo Fisher Scientific 88803) or Pierce Streptavidin Magnetic Beads (Western blot; Thermo Fisher Scientific 88817) was washed twice with lysis buffer. Lysates with antibodies were added to the beads and incubated at 4° C. under rotary agitation for 4 h. Beads were washed with lysis buffer 3 times and resuspended in lysis buffer for storage. […] This solution was subjected to solid phase extraction to concentrate the peptides and remove unwanted reagents followed by injection onto a Shimadzu HPLC with fraction collector. Eight fractions were collected and after concentration were injected on a Waters NanoAcquity HPLC equipped with a self-packed Aeris 3 μm C18 analytical column 0.075 mm by 20 cm, (Phenomenex). Peptides were eluted using standard reverse-phase gradients. The effluent from the column was analyzed using a Thermo Orbitrap Elite mass spectrometer (nanospray configuration) operated in a data dependent manner for 54 minutes. […] Scaffold Q+S (Proteome Software) was used to provide consensus reports for the identified proteins.

[1] = Co-IP with FLAG antibody, C-terminally FLAG-tagged B3GNT2, mass spectrometry count, unit not given
[2] = Co-IP with FLAG antibody, N-terminally FLAG-tagged B3GNT2, mass spectrometry count, unit not given
[3] = Co-IP with IgG control antibody, C-terminally FLAG-tagged B3GNT2, mass spectrometry count, unit not given
[4] = Co-IP with IgG control antibody, N-terminally FLAG-tagged B3GNT2, mass spectrometry count, unit not given

Row | C-term flag [1] | N-term FLAG [2] | C-term IgG [3] | N-term IgG [4] | C-term flag (Co-IP followed by mass spectrometry of B3GNT2, C-term tag, FLAG pull-down) | C-term IgG (Co-IP followed by mass spectrometry of B3GNT2, C-term tag, IgG pull-down) | N-term FLAG (Co-IP followed by mass spectrometry of B3GNT2, N-term tag, FLAG pull-down) | N-term IgG (Co-IP followed by mass spectrometry of B3GNT2, N-term tag, IgG pull-down) | Molecule
1 | – | – | – | – | 5 | 2 | 5 | 3 | ATXN2L (protein) MLKPQPLQQPSQPQQPPPTQQAVARRPPGGTSPPNGGLPGPLATSAAPPGPPAAASPCLGPVAAAGSGLRRGAEGILAPQPPPPQQHQERPGAAAIGSARGQSTGKGPPQSPVFEGVYNNSRMLHFLTAVVGSTCDVKVKNGTTYEGIFKTLSSKFELAVDAVHRKASEPAGGPRREDIVDTMVFKPSDVMLVHFRNVDFNYATKDKFTDSAIAMNSKVNGEHKEKVLQRWEGGDSNSDDYDLESDMSNGWDPNEMFKFNEENYGVKTTYDSSLSSYTVPLEKDNSEEFRQRELRAAQLAREIESSPQYRLRIAMENDDGRTEEEKHSAVQRQGSGRESPSLASREGKYIPLPQRVREGPRGGVRCSSSRGGRPGLSSLPPRGPHHLDNSSPGPGSEARGINGGPSRMSPKAQRPLRGAKTLSSPSNRPSGETSVPPPPAVGRMYPPRSPKSAAPAPISASCPEPPIGSAVPTSSASIPVTSSVSDPGVGSISPASPKISLAPTDVKELSTKEPGRTLEPQELARIAGKVPGLQNEQKRFQLEELRKFGAQFKLQPSSSPENSLDPFPPRILKEEPKGKEKEVDGLLTSEPMGSPVSSKTESVSDKEDKPPLAPSGGTEGPEQPPPPCPSQTGSPPVGLIKGEDKDEGPVAEQVKKSTLNPNAKEFNPTKPLLSVNKSTSTPTSPGPRTHSTPSIPVLTAGQSGLYSPQYISYIPQIHMGPAVQAPQMYPYPVSNSVPGQQGKYRGAKGSLPPQRSDQHQPASAPPMMQAAAAAGPPLVAATPYSSYIPYNPQQFPGQPAMMQPMAHYPSQPVFAPMLQSNPRMLTSGSHPQAIVSSSTPQYPSAEQPTPQALYATVHQSYPHHATQLHAHQPQPATTPTGSQPQSQHAAPSPVQHQAGQAPHLGSGQPQQNLYHPGALTGTPPSLPPGPSAQSPQSSFPQPAAVYAIHHQQLPHGFTNMAHVTQAHVQTGITAAPPPHPGAPHPPQVMLLHPPQSHGGPPQGAVPQSGVPALSASTPSPYPYIGHPQGEQPGQAPGFPGGADDRIREFSLAGGIWHGRAEGLQVGQDARVLGGE
2 | 4 | 3 | 0 | 0 | – | – | – | – | SSR1 (protein) VLFRGGPRGLLAVAQDLTEDEETVEDSIIEDEDDEAEVEEDEPTDLVEDKEEEDVSGEPEASPSADTTILFVKGEDFPANNIVKFLVGFTNKGTEDFIVESLDASFRYPQDYQFYIQNFTALPLNTVVPPQRQATFEYSFIPAEPMGGRPFGLVINLNYKDLNGNVFQDAVFNQTVTVIEREDGLDGETIFMYMFLAGLGLLVIVGLHQLLESRKRKRPIQKVEMGTSSQNDVDMSWIPQETLNQINKASPRRLPRKRAQKRSVGSDE
3 | 4 | 3 | 0 | 0 | – | – | – | – | DNAJB11 (protein) GRDFYKILGVPRSASIKDIKKAYRKLALQLHPDRNPDDPQAQEKFQDLGAAYEVLSDSEKRKQYDTYGEEGLKDGHQSSHGDIFSHFFGDFGFMFGGTPRQQDRNIPRGSDIIVDLEVTLEEVYAGNFVEVVRNKPVARQAPGKRKCNCRQEMRTTQLGPGRFQMTQEVVCDECPNVKLVNEERTLEVEIEPGVRDGMEYPFIGEGEPHVDGEPGDLRFRIKVVKHPIFERRGDDLYTNVTISLVESLVGFEMDITHLDGHKVHISRDKITRPGAKLWKKGEGLPNFDNNNIKGSLIITFDVDFPKEQLTEEAREGIKQLLKQGSVQKVYNGLQGY

Continued, molecule first:

Row | Molecule | C-term flag [1] | N-term FLAG [2] | C-term IgG [3] | N-term IgG [4] | C-term flag (Co-IP followed by mass spectrometry of B3GNT2, C-term tag, FLAG pull-down) | C-term IgG (Co-IP followed by mass spectrometry of B3GNT2, C-term tag, IgG pull-down) | N-term FLAG (Co-IP followed by mass spectrometry of B3GNT2, N-term tag, FLAG pull-down) | N-term IgG (Co-IP followed by mass spectrometry of B3GNT2, N-term tag, IgG pull-down)
4 | DSTN (protein) ASGVQVADEVCRIFYDMKVRKCSTPEEIKKRKKAVIFCLSADKKCIIVEEGKEILVGDVGVTITDPFKHFVGMLPEKDCRYALYDASFETKESRKEELMFFLWAPELAPLKSKMIYASSKDAIKKKFQGIKHECQANGPEDLNRACIAEKLGGSLIVAFEGCPV | 3 | 0 | 0 | 0 | – | – | – | –
5 | SPRR2E (protein) MSYQQQQCKQPCQPPPVCPTPKCPEPCPPPKCPEPCPPPKCPQPCPPQQCQQKCPPVTPSPPCQPKCPPKSK | 0 | 16 | 5 | 3 | – | – | – | –
6 | RARS (protein) MDVLVSECSARLLQQEEEIKSLTAEIDRLKNCGCLGASPNLEQLQEENLKLKYRLNILRKSLQAERNKPTKNMINIISRLQEVFGHAIKAAYPDLENPPLLVTPSQQAKFGDYQCNSAMGISQMLKTKEQKVNPREIAENITKHLPDNECIEKVEIAGPGFINVHLRKDFVSEQLTSLLVNGVQLPALGENKKVIVDFSSPNIAKEMHVGHLRSTIIGESISRLFEFAGYDVLRLNHVGDWGTQFGMLIAHLQDKFPDYLTVSPPIGDLQVFYKESKKRFDTEEEFKKRAYQCVVLLQGKNPDITKAWKLICDVSRQELNKIYDALDVSLIERGESFYQDRMNDIVKEFEDRGFVQVDDGRKIVFVPGCSIPLTIVKSDGGYTYDTSDLAAIKQRLFEEKADMIIYVVDNGQSVHFQTIFAAAQMIGWYDPKVTRVFHAGFGVVLGEDKKKFKTRSGETVRLMDLLGEGLKRSMDKLKEKERDKVLTAEELNAAQTSVAYGCIKYADLSHNRLNDYIFSFDKMLDDRGNTAAYLLYAFTRIRSIARLANIDEEMLQKAARETKILLDHEKEWKLGRCILRFPEILQKILDDLFLHTLCDYIYELATAFTEFYDSCYCVEKDRQTGKILKVNMWRMLLCEAVAAVMAKGFDILGIKPVQRM | 2 | 0 | 0 | 0 | – | – | – | –
7 | HNRNPA1 (protein) SKSESPKEPEQLRKLFIGGLSFETTDESLRSHFEQWGTLTDCVVMRDPNTKRSRGFGFVTYATVEEVDAAMNARPHKVDGRVVEPKRAVSREDSQRPGAHLTVKKIFVGGIKEDTEEHHLRDYFEQYGKIEVIEIMTDRGSGKKRGFAFVTFDDHDSVDKIVIQKYHTVNGHNCEVRKALSKQEMASASSSQRGRSGSGNFGGGRGGGFGGNDNFGRGGNFSGRGGFGGSRGGGGYGGSGDGYNGFGNDGGYGGGGPGYSGGSRGYGSGGQGYGNQGSGYGGSGSYDSYNNGGGGGFGGGSGSNFGGGGSYNDFGNYNNQSSNFGPMKGGNFGGRSSGPYGGGGQYFAKPRNQGGYGGSSSSSSYGSGRRF | 9 | 7 | 4 | 4 | – | – | – | –
8 | SDF4 (protein) RPANHSSTRERVANREENEILPPDHLNGVKLEMDGHLNRGFHQEVFLGKDLGGFDEDAEPRRSRRKLMVIFSKVDVNTDRKISAKEMQRWIMEKTAEHFQEAMEESKTHFRAVDPDGDGHVSWDEYKVKFLASKGHSEKEVADAIRLNEELKVDEETQEVLENLKDRWYQADSPPADLLLTEEEFLSFLHPEHSRGMLRFMVKEIVRDLDQDGDKQLSVPEFISLPVGTVENQQGQDIDDNWVKDRKKEFEELIDSNHDGIVTAEELESYMDPMNEYNALNEAKQMIAVADENQNHHLEPEEVLKYSEFFTGSKLVDYARSVHEEF | 7 | 0 | 0 | 0 | – | – | – | –
